Data: US20070265350A1 (UNIVERSITY OF IOWA RESEARCH FOUNDATION, published 2007)

Target: T1, His-Cdc42 (UniProt P60953 1-191, limits assumed)
T1 construct: Bought protein; also called His-tagged Cdc42; Cdc42-GTPγS; not shown: His tag
Experiment: in vitro pull-down of immobilized His-Cdc42 (nucleotide analogs as indicated) with purified bovine SOD1, Western blot (FIG. 1B)
Protocol: Pull-down assays with GST- and His-tagged proteins. Dynabeads talon for histidine tagged proteins were washed with potassium phosphate buffer (PPHB) containing 100 mM KH₂PO₄, 10 mM NaCl, 0.25 mM MgCl₂ and 100 nM CaCl₂. […] The GTPases were either used directly or preloaded with either GTPγS or GDPβS and then washed. […] Samples were incubated at room temperature (RT) for 30 minutes with intermittent gentle agitation. […] The fourth wash was carried out in 50 mM Tris pH 6.8. Proteins were eluted using 20 μl 125 mM imidazole and samples were then mixed with SDS-PAGE reducing loading buffer and separated by SDS-PAGE for Western blotting.

T1 sequence (P60953 whole entry): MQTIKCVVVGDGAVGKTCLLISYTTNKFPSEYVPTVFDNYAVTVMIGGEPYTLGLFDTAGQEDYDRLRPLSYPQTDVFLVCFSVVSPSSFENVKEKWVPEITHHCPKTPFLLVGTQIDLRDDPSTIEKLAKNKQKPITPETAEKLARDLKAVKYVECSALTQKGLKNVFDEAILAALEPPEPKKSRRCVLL

binding result: no binding
B1: Bovine copper/zinc superoxide dismutase (SOD1), native (enzyme)
chain: not shown
notes: Native, metalated enzyme as bought; also called bovine SOD1; Bov.SOD1
